The test concerns the target rat KLRE1-HA (short splice variant), in transiently transfected 293T cells (rat) (UniProt Q80ZC8). Briefly: SDS-PAGE under nonreducing and reducing conditions with Western blot.

Regarding “rat KLRE1-HA (short splice variant), in transiently transfected 293T cells (from UniProt Q80ZC8 1-226) (receptor)”, the stoichiometry N was 2.

As usually defined, the stoichiometry N is a count of units in the complex or per binding partner.

The values are drawn from publication PMC2193914.
